# According to patent US20180371086A1 (Gilead, published 2018):
# B1: PGT121.60 hIgG1/hLambda (antibody)
# heavy: QMQLQESGPGLVKPSETLSLTCSVSGASISDSYWSWIRRSPGKGLEWIGYVHKSGDTNYNPSLKSRVHLSLDTSKNQVSLSLTGVTAADSGKYYCARTLHGRRIYGIVAFNEWFTYFYMDVWGTGTQVTVSSASTKGPSVFPLAPSSKSTSGGTAALGCLVKDYFPEPVTVSWNSGALTSGVHTFPAVLQSSGLYSLSSVVTVPSSSLGTQTYICNVNHKPSNTKVDKKVEPKSCDKTHTCPPCPAPELLAGPDVFLFPPKPKDTLMISRTPEVTCVVVDVSHEDPEVKFNWYVDGVEVHNAKTKPREEQYNSTYRVVSVLTVLHQDWLNGKEYKCKVSNKALPLPEEKTISKAKGQPREPQVYTLPPSREEMTKNQVSLTCLVKGFYPSDIAVEWESNGQPENNYKTTPPVLDSDGSFFLYSKLTVDKSRWQQGNVFSCSVLHEALHSHYTQKSLSLSPGK
# light: not shown
# How the values were obtained:
# Human FcRn [1] = target: T1, Human FcRn (human, UniProt P55899 24-297; P61769 21-119); assay: ELISA, FcRn coated on plate, pH 7.0
# T1 construct: also called neonatal Fc receptor
# T1 sequence (P55899 24-297 limits assumed, chain 1 of 2): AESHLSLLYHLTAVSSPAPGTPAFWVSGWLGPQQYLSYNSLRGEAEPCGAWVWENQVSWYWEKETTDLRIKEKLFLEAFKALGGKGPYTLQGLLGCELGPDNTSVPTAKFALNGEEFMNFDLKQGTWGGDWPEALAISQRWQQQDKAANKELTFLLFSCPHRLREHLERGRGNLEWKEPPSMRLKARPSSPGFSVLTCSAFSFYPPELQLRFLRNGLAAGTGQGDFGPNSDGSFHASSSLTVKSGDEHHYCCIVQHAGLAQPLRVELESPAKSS
# T1 sequence (P61769 21-119 limits assumed, chain 2 of 2): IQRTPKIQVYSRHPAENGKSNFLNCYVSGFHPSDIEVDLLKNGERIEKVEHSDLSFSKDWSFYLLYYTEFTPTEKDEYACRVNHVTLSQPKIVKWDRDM
# Procedure: (§1) The binding of antibodies to FcRn of various antibody variants at different pHs was determined. A 96-well Maxisorp plate was coated with 100 ul of 5 μg/ml FcRn. The plate was incubated overnight at 4° C., and then blocked with 4% skim milk for 2 hr at room temperature after washing 3 times with 0.05% Tween 20 washing buffer. […] The plate was then washed 3 times and 100 μL of Fab-anti-human Fab-HRP or Goat anti-human IgG-HRP secondary antibody diluted in 4% skimmed milk was added. Plates were then incubated 50 min at room temperature, washed three times, and 100 μL fresh TMB substrate was added. Plates were developed for 3 minutes on bench with gentle shaking. Plate was quenched with 100 μL 1M HCl, shaken briefly, read at A450 on a spectramax m5 plate reader.
# [2] = target: HIV-1 Env of virus MGRM-Acute-B-004 (HIV-1); assay: cell-based or functional assay
# [3] = target: HIV-1 Env of virus MGRM-G-013 (HIV-1); assay: cell-based or functional assay
# [4] = target: HIV-1 Env of virus MGRM-F1-014 (HIV-1); assay: cell-based or functional assay
# [5] = target: HIV-1 Env of virus MGRM-Chronic-B-014 (HIV-1); assay: cell-based or functional assay
# [6] = target: HIV-1 Env of virus MGRM-A-006 (HIV-1); assay: cell-based or functional assay
# [7] = target: HIV-1 Env of virus MGRM-Chronic-B-002 (HIV-1); assay: cell-based or functional assay
# [8] = target: HIV-1 Env of virus MGRM-Acute-B-003 (HIV-1); assay: cell-based or functional assay
# [9] = target: HIV-1 Env of virus MGRM-Chronic-B-010 (HIV-1); assay: cell-based or functional assay
# [10] = target: HIV-1 Env of virus MGRM-Acute-B-006 (HIV-1); assay: cell-based or functional assay
# [11] = target: HIV-1 Env of virus MGRM-C-023 (HIV-1); assay: cell-based or functional assay
# [12] = target: HIV-1 Env of virus MGRM-G-001 (HIV-1); assay: cell-based or functional assay
# [13] = target: HIV-1 Env of virus MGRM-AG-009 (HIV-1); assay: cell-based or functional assay
# [14] = target: HIV-1 Env of virus MGRM-Chronic-B-019 (HIV-1); assay: cell-based or functional assay
# [15] = target: HIV-1 Env of virus MGRM-Chronic-B-004 (HIV-1); assay: cell-based or functional assay
# [16] = target: HIV-1 Env of virus MGRM-Acute-B-009 (HIV-1); assay: cell-based or functional assay
# [17] = target: HIV-1 Env of virus MGRM-AG-005 (HIV-1); assay: cell-based or functional assay
# [18] = target: HIV-1 Env of virus MGRM-Acute-B-001 (HIV-1); assay: cell-based or functional assay
# [19] = target: HIV-1 Env of virus MGRM-C-016 (HIV-1); assay: cell-based or functional assay
# [20] = target: HIV-1 Env of virus MGRM-Chronic-B-016 (HIV-1); assay: cell-based or functional assay
# [21] = target: HIV-1 Env of virus MGRM-C-008 (HIV-1); assay: cell-based or functional assay
# [22] = target: HIV-1 Env of virus MGRM-D-011 (HIV-1); assay: cell-based or functional assay
# [23] = target: HIV-1 Env of virus MGRM-Acute-B-010 (HIV-1); assay: cell-based or functional assay
# [24] = target: HIV-1 Env of virus MGRM-C-017 (HIV-1); assay: cell-based or functional assay
# [25] = target: HIV-1 Env of virus MGRM-C-006 (HIV-1); assay: cell-based or functional assay
# [26] = target: HIV-1 Env of virus MGRM-G-017 (HIV-1); assay: cell-based or functional assay
# [27] = target: HIV-1 Env of virus MGRM-Acute-B-005 (HIV-1); assay: cell-based or functional assay
# [28] = target: HIV-1 Env of virus MGRM-Chronic-B-012 (HIV-1); assay: cell-based or functional assay
# [29] = target: HIV-1 Env of virus MGRM-F1-015 (HIV-1); assay: cell-based or functional assay
# [30] = target: HIV-1 Env of virus MGRM-Chronic-B-020 (HIV-1); assay: cell-based or functional assay
# [31] = target: HIV-1 Env of virus MGRM-Chronic-B-022 (HIV-1); assay: cell-based or functional assay
# [32] = target: HIV-1 Env of virus MGRM-G-004 (HIV-1); assay: cell-based or functional assay
# [33] = target: HIV-1 Env of virus MGRM-A-010 (HIV-1); assay: cell-based or functional assay
# [34] = target: HIV-1 Env of virus MGRM-Chronic-B-007 (HIV-1); assay: cell-based or functional assay
# [35] = target: HIV-1 Env of virus MGRM-C-028 (HIV-1); assay: cell-based or functional assay
# [36] = target: HIV-1 Env of virus MGRM-F1-013 (HIV-1); assay: cell-based or functional assay
# [37] = target: HIV-1 Env of virus MGRM-D-002 (HIV-1); assay: cell-based or functional assay
# [38] = target: HIV-1 Env of virus MGRM-C-022 (HIV-1); assay: cell-based or functional assay
# Human FcRn [39] = target: T1, Human FcRn; assay: ELISA, FcRn coated on plate; pH 7.0/6.0 ratio against that of PGT121
# Procedure: as §1
# Human FcRn [40] = target: T1, Human FcRn; assay: ELISA, FcRn coated on plate, pH 6.0
# Procedure: as §1
# [41] = target: gp120 (HT593) expressed on human embryonic kidney (HEK) cells (HIV-1); assay: cell-based or functional assay
binder,measurement,setting,value
B1,EC50,Human FcRn [1],78 nM
same,PGT121.60 IC50,[2],0.0497 µg/mL
same,PGT121.60 IC50,[3],1.5 µg/mL
same,PGT121.60 IC50,[4],0.0509 µg/mL
same,PGT121.60 IC50,[5],0.133 µg/mL
same,PGT121.60 IC50,[6],4.05 µg/mL
same,PGT121.60 IC50,[7],0.0649 µg/mL
same,PGT121.60 IC50,[8],0.0179 µg/mL
same,PGT121.60 IC50,[9],7.4 ng/mL
same,PGT121.60 IC50,[10],0.0966 µg/mL
same,PGT121.60 IC50,[11],4.4 ng/mL
same,PGT121.60 IC50,[12],5 ng/mL
same,PGT121.60 IC50,[13],0.0868 µg/mL
same,PGT121.60 IC50,[14],0.199 µg/mL
same,PGT121.60 IC50,[15],1.3 ng/mL
same,PGT121.60 IC50,[16],1.6 ng/mL
same,PGT121.60 IC50,[17],0.203 µg/mL
same,PGT121.60 IC50,[18],0.0313 µg/mL
same,PGT121.60 IC50,[19],0.0137 µg/mL
same,PGT121.60 IC50,[20],0.0283 µg/mL
same,PGT121.60 IC50,[21],4.4 ng/mL
same,PGT121.60 IC50,[22],4.3 ng/mL
same,PGT121.60 IC50,[23],0.0328 µg/mL
same,PGT121.60 IC50,[24],5.8 ng/mL
same,PGT121.60 IC50,[25],3 ng/mL
same,PGT121.60 IC50,[26],0.0255 µg/mL
same,PGT121.60 IC50,[27],1.4 ng/mL
same,PGT121.60 IC50,[28],0.0409 µg/mL
same,PGT121.60 IC50,[29],11.6 µg/mL
same,PGT121.60 IC50,[30],1.8 ng/mL
same,PGT121.60 IC50,[31],11.5 µg/mL
same,PGT121.60 IC50,[32],0.046 µg/mL
same,PGT121.60 IC50,[33],0.745 µg/mL
same,PGT121.60 IC50,[34],2.55 µg/mL
same,PGT121.60 IC50,[35],0.744 µg/mL
same,PGT121.60 IC50,[36],0.0871 µg/mL
same,PGT121.60 IC50,[37],1.5 ng/mL
same,PGT121.60 IC50,[38],3.8 ng/mL
same,Fold vs PGT121,Human FcRn [39],11 fold
same,EC50,Human FcRn [40],0.22 nM
same,"% ADCC Activity (ADCC reporter cell based assay; sample stressed at 25° C. for 4 weeks, relative to its untreated control)",[41],65%
